Reference: patent US20260167710A1 (GlaxoSmithKline, published 2026)

Experiments:
[1] = target: T1, IL-33 99-270 (UniProt O95760 99-270); assay: cell-based or functional assay
T1 sequence (looked up): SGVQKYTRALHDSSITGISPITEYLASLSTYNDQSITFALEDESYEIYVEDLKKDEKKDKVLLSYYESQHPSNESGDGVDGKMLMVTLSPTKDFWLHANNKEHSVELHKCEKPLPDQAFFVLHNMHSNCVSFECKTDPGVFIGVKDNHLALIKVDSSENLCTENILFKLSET

[2] = target: spIL-33; assay: cell-based or functional assay
[3] = target: T2, Mature IL-33 (IL-33 113-270) (UniProt O95760 113-270); assay: cell-based or functional assay
T2 sequence (looked up): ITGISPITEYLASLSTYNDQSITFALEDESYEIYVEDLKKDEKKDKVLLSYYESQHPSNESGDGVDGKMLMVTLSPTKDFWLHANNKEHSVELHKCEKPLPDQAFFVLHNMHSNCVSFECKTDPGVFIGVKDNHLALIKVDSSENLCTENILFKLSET

[4] = target: T3, IL-33 95-270 (UniProt O95760 95-270); assay: cell-based or functional assay
T3 sequence (looked up): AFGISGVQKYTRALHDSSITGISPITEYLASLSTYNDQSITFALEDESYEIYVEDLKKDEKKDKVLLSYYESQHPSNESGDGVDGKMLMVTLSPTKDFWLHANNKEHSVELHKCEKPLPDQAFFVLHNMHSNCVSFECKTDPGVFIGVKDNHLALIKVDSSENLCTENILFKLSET

[5] = target: T4, IL-33 109-270 (UniProt O95760 109-270); assay: cell-based or functional assay
T4 sequence (looked up): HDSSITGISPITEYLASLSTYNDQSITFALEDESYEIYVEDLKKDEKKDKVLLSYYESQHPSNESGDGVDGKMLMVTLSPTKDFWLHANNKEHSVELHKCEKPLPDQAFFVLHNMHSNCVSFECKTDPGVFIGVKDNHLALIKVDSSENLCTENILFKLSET

[6] = target: T5, human IL-1b (human, UniProt P01584 117-269); assay: BLI (Octet RED384), antibody on protein A sensors, single shot
T5 construct: also called IL-1b (R&D Systems #201-LB)

[7] = target: T6, human IL-33 (human, Biotinylated in Example 2; the site is not stated.); assay: cell-based or functional assay
T6 chain: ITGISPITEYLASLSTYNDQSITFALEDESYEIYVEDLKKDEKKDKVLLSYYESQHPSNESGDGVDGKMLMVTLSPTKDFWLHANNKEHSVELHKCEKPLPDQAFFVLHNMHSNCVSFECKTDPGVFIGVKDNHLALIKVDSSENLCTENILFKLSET

[8] = target: T6, human IL-33; assay: cell-based or functional assay
[9] = target: T6, human IL-33; assay: cell-based or functional assay

- IC50, inhibition of 25 pM IL-33 isoform in HEK-Blue reporter assay [1]: 436 pM
- IC50, inhibition of 25 pM IL-33 isoform in HEK-Blue reporter assay [2]: 90.3 pM
- IC50, inhibition of 25 pM IL-33 isoform in HEK-Blue reporter assay [3]: 18.2 pM
- IC50, inhibition of 25 pM IL-33 isoform in HEK-Blue reporter assay [4]: 162 pM
- IC50, inhibition of 25 pM IL-33 isoform in HEK-Blue reporter assay [5]: 254 pM
- binding result [6]: no binding (tested: 100 nM)
- IC50, inhibition of 10 ng/mL IL-33 induced IFN-γ secretion from whole blood, non-pre-complexed, Mean [7]: 0.37 nM
- IC50, inhibition of 10 ng/mL IL-33 induced IFN-γ secretion from whole blood, non-pre-complexed, donor #32871 [7]: 0.21 nM
- IC50, inhibition of 10 ng/mL IL-33 induced IFN-γ secretion from whole blood, non-pre-complexed, donor #90237 [7]: 0.73 nM
- IC50, inhibition of 10 ng/mL IL-33 induced IFN-γ secretion from whole blood, non-pre-complexed, donor #91680 [7]: 0.43 nM
- IC50, inhibition of 10 ng/mL IL-33 induced IFN-γ secretion from whole blood, non-pre-complexed, donor #91955 [7]: 0.08 nM
- IC50, inhibition of 10 ng/mL IL-33 induced IFN-γ secretion from whole blood, non-pre-complexed, donor #91986 [7]: 0.36 nM
- IC50, inhibition of 10 ng/mL IL-33 induced IFN-γ secretion from whole blood, non-pre-complexed, donor #92251 [7]: 0.42 nM
- pIC50, inhibition of 10 ng/mL IL-33 induced IFN-γ secretion from whole blood, non-pre-complexed, Mean [7]: 9.51
- pIC50, inhibition of 10 ng/mL IL-33 induced IFN-γ secretion from whole blood, non-pre-complexed, donor #32871 [7]: 9.67
- pIC50, inhibition of 10 ng/mL IL-33 induced IFN-γ secretion from whole blood, non-pre-complexed, donor #90237 [7]: 9.13
- pIC50, inhibition of 10 ng/mL IL-33 induced IFN-γ secretion from whole blood, non-pre-complexed, donor #91680 [7]: 9.37
- pIC50, inhibition of 10 ng/mL IL-33 induced IFN-γ secretion from whole blood, non-pre-complexed, donor #91955 [7]: 10.1
- pIC50, inhibition of 10 ng/mL IL-33 induced IFN-γ secretion from whole blood, non-pre-complexed, donor #91986 [7]: 9.44
- pIC50, inhibition of 10 ng/mL IL-33 induced IFN-γ secretion from whole blood, non-pre-complexed, donor #92251 [7]: 9.37
- IC50, inhibition of 1 ng/mL human IL-33 induced IL-6 production, mouse bone marrow-derived mast cells [8]: 31.2 pM
- IC50, inhibition of 1 ng/mL human IL-33 induced IL-13 production, mouse bone marrow-derived mast cells [8]: 28 pM
- IC50, inhibition of 1 ng/mL human IL-33 induced IL-18 production, mouse bone marrow-derived mast cells [8]: 61.3 pM
- IC50, inhibition of 1 ng/mL human IL-33 induced TNF-α production, mouse bone marrow-derived mast cells [8]: 37.4 pM
- pIC50, inhibition of 1 ng/mL human IL-33 induced IL-6 production, mouse bone marrow-derived mast cells [8]: 10.5
- pIC50, inhibition of 1 ng/mL human IL-33 induced IL-13 production, mouse bone marrow-derived mast cells [8]: 0.55
- pIC50, inhibition of 1 ng/mL human IL-33 induced IL-18 production, mouse bone marrow-derived mast cells [8]: 10.2
- pIC50, inhibition of 1 ng/mL human IL-33 induced TNF-α production, mouse bone marrow-derived mast cells [8]: 10.4
- IC50, inhibition of 30 ng/mL IL-33 induced IFN-γ secretion from whole blood, non-pre-complexed, Mean [9]: 1.57 nM
- IC50, inhibition of 30 ng/mL IL-33 induced IFN-γ secretion from whole blood, non-pre-complexed, donor #32871 [9]: 0.97 nM
- IC50, inhibition of 30 ng/mL IL-33 induced IFN-γ secretion from whole blood, non-pre-complexed, donor #90237 [9]: 2.6 nM
- IC50, inhibition of 30 ng/mL IL-33 induced IFN-γ secretion from whole blood, non-pre-complexed, donor #91680 [9]: 1.6 nM
- IC50, inhibition of 30 ng/mL IL-33 induced IFN-γ secretion from whole blood, non-pre-complexed, donor #91955 [9]: 0.48 nM
- IC50, inhibition of 30 ng/mL IL-33 induced IFN-γ secretion from whole blood, non-pre-complexed, donor #91986 [9]: 3.04 nM
- IC50, inhibition of 30 ng/mL IL-33 induced IFN-γ secretion from whole blood, non-pre-complexed, donor #92251 [9]: 0.74 nM
- pIC50, inhibition of 30 ng/mL IL-33 induced IFN-γ secretion from whole blood, non-pre-complexed, Mean [9]: 8.89
- pIC50, inhibition of 30 ng/mL IL-33 induced IFN-γ secretion from whole blood, non-pre-complexed, donor #32871 [9]: 9.01
- pIC50, inhibition of 30 ng/mL IL-33 induced IFN-γ secretion from whole blood, non-pre-complexed, donor #90237 [9]: 8.58
- pIC50, inhibition of 30 ng/mL IL-33 induced IFN-γ secretion from whole blood, non-pre-complexed, donor #91680 [9]: 8.79
B1: 22A06-458 (antibody, human IgG1, kappa)
heavy: QVQLVQSGAEVKKPGASVKVSCKASGYTFISYGMHWVRQAPGQGLEWMGEINPHGGSTSYAQKFKGRVTMTRDTSTSTVYMELSSLRSEDTAVYYCARPSAAYSHYLGIDLWGRGTLVTVSSASTKGPSVFPLAPSSKSTSGGTAALGCLVKDYFPEPVTVSWNSGALTSGVHTFPAVLQSSGLYSLSSVVTVPSSSLGTQTYICNVNHKPSNTKVDKKVEPKSCDKTHTCPPCPAPELLGGPSVFLFPPKPKDTLYITREPEVTCVVVDVSHEDPEVKFNWYVDGVEVHNAKTKPREEQYNSTYRVVSVLTVLHQDWLNGKEYKCKVSNKALPAPIEKTISKAKGQPREPQVYTLPPSRDELTKNQVSLTCLVKGFYPSDIAVEWESNGQPENNYKTTPPVLDSDGSFFLYSKLTVDKSRWQQGNVFSCSVMHEALHNHYTQKSLSLSPGK
light: DIQMTQSPSSVSASVGDRVTITCRASQGISSWLAWYQQKPGKAPKLLIYAASRLQSGVPSRFSGSGSGTDFTLTISSLQPEDFATYYCQQANVFPLTFGGGTKVEIKRTVAAPSVFIFPPSDEQLKSGTASVVCLLNNFYPREAKVQWKVDNALQSGNSQESVTEQDSKDSTYSLSSTLTLSKADYEKHKVYACEVTHQGLSSPVTKSFNRGEC
